In PMC4227782:

Target: T1, MBNL1 (2-260) (UniProt Q9NR56)
T1 sequence: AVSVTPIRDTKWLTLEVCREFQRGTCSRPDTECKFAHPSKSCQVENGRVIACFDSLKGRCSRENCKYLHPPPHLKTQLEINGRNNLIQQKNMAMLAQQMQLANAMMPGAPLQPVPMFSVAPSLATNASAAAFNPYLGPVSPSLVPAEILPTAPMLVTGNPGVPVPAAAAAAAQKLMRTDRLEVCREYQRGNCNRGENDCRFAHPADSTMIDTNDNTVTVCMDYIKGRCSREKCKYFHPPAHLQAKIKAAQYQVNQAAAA
Test: EMSA
Conditions: 5 mM Mg2+, 0.1 mg/ml heparin, 175 mM NaCl, 20 mM Tris pH 7.5, 1 mM BME, 10% glycerol, 5 mM MgCl2, 0.1 mg/ml heparin, 2 mg/ml BSA, 0.02% xylene cyanol, 0.05% bromophenol blue, 20 min at room …

CUGCUGCUGCUG [4Ψ(CUG)4]
Kd (Kd immeasurable, 4 pseudouridines replacing U): > 5000 nM

CUGCUGCUGCUG [2Ψ(CUG)4]
Kd (2 pseudouridines replacing U, positions only in Fig 1B): 6000 nM

CUGCUGCUGCUG [(CUG)4]
Kd: 300 nM

CUGCUGCUGCUG [1-2'Ome(CUG)4]
Kd (1 2'-O-methyl, position only in Fig 1B): 650 nM

CUGCUGCUGCUG [1Ψ(CUG)4]
Kd (1 pseudouridine replacing U, position only in Fig 1B): 1000 nM

CUGCUGCUGCUG [4-2'Ome(CUG)4]
Kd (4 2'-O-methyl, positions only in Fig 1B): 1000 nM

CUGCUGCUGCUG [2-2'Ome(CUG)4]
Kd (2 2'-O-methyl, positions only in Fig 1B): 890 nM
